Here are results for six molecules from patent US20080227698A1, “OLIGOPEPTIDES FOR TREATMENT OF OSTEOPOROSIS AND OTHER BONE DISEASES AND METHODS THEREOF” (Washington University, priority 2005, published 2008).

Assay [1] deals with Wnt signaling. Put plainly: Wnt signalling TCF/LEF-Luc assay in HEK293 cells (Wnt3A conditioned medium plus Dkk1). In kind it is cell-based. Conditions: Wnt3A conditioned medium plus Dkk1 protein at 10 nM. On the procedure: HEK293 cells were plated into six-well plates. For each well, […] of the TOP-[…] luciferase construct (Upstate Biotechnology) was cotransfected with 0.8 μg Mesd-expressing vector, 0.8 μg Mesd mutant-expressing vector, or empty vector. A β-galactosidase-expressing vector (Promega, Madison, Wis.) was included as an internal control for transfection efficiency. After 48 hours, cells were lysed and both luciferase and β-galactosidase activities were determined with enzyme assay kits (Promega). The luciferase activity was determined with a luminometer using the Dual Luciferase Assay system (Promega). Luciferase activity was normalized to the activity of the P-galactosidase.

Assay [2] deals with T1, LRP6 (Homo sapiens, UniProt O75581). Put plainly: LRP6-mediated ^125I-Mesd degradation in LRP6-transduced HT1080 cells. Particulars: 500 nM unlabeled competitor, ^125I-Mesd 5 nM, 4 hours at 37° C. Also on record: plasmid pCS-Myc-hLRP6 containing the full-length human LRP6 cDNA; HA; expressed in transfected cells; host or cells: human HT1080 cells, stably transduced (pLNCX2 retroviral vector). It is filed as cell-based. As to the method: Ligand degradation was performed using the methods as described (Li, Y., J. Biol. Chem. 275: 17187-17194, 2000). Briefly, 2×10^5 cells were seeded into 12-well dishes 1 day prior to assay. Pre-warmed assay buffer (minimal Eagle's medium containing 0.6% BSA with radioligand, 0.6 ml/well) was added to cell monolayers in the absence or the presence of unlabeled 500 nM RAP or 500 nM Mesd, followed by incubation for 4 hours at 37° C. Thereafter, the medium overlying the cell monolayers was removed and proteins were precipitated by addition of BSA to 10 mg/ml and trichloroacetic acid to 20%. Degradation of radioligand was defined as the appearance of radioactive fragments in the overlying medium that were soluble in 20% trichloroacetic acid. Kinetic analysis of endocytosis LRP6-transduced HT1080 cells were plated in 12-well plates at a density of 2×10^5 cells/well and used after overnight culture. Cells were rinsed twice in ice-cold assay buffer (minimal Eagle's medium containing 0.6% BSA), and ^125I-anti-HA IgG was added at 1 nM final concentration in cold assay buffer (0.5 ml/well). The binding of ^125Ianti- HA IgG was carried out at 4° C. for 90 minutes with gentle rocking. Unbound ^125I-anti-HA IgG was removed by washing cell monolayers three times with cold assay buffer. Ice-cold stop/strip solution (0.2 M acetic acid, pH 2.6, 0.1 M NaCl) was added to one set of plates without warming up and kept on ice. The remaining plates were then placed in a 37° C. water bath and 0.5 ml assay buffer prewarmed to 37° C. was quickly added to cell monolayers to initiate internalization. After each time point, the plates were quickly placed on ice and the assay buffer was replaced with cold stop/strip solution. ^125I-anti-HA IgG that remained on the cell surface was stripped by incubation of cell monolayers with cold stop/strip solution for a total of 20 minutes (0.75 ml for 10 minutes, twice) and counted. Cell monolayers were then solubilized with low-SDS lysis buffer and counted. […] The fraction of internalized ^125I-anti-HA IgG after each time point was calculated and plotted. […]

In assay [3] the target is T1, LRP6. Put plainly: ^125I-Mesd cell surface ligand binding to LRP6-transduced HT1080 cells. Further details: plasmid pCS-Myc-hLRP6 containing the full-length human LRP6 cDNA; HA; expressed in transfected cells; host or cells: human HT1080 cells, stably transduced (pLNCX2 retroviral vector). Conditions: for Binding of Mesd truncation mutants to cell surface LRP6: LRP6-transduced HT1080 cells, 5 nM ^125I-labelled, 3 hours at 4° C. for Mesd (150-195). On the procedure:
To examine whether Mesd binds with high affinity to […] at the cell surface, cell surface ligand binding experiments were performed with cells stably transduced with LRP6 cDNA. Human HT1080 cells, which express undetectable levels of LRP6, were transduced with a viral vector alone (pLNCX2) or with vector containing LRP6 cDNA (Li, Y., Oncogene 23: 9129-9135, 2004) and used for ^125I-Mesd binding (FIG. 1A). ^125I-Mesd (5 nM) reached maximal binding after 2 hours incubation at 4° C. with LRP6-expressing HT1080 cells (FIG. 1A).
(A) Time course of ^125I-Mesd (5 nM) binding to LRP6-transduced HT1080 cells and the control cells. Assay was carried out for the indicated periods at 4° C. in the absence (total) or presence of 500 nM Mesd (non-specific). (B) Saturation binding of ^125I-Mesd to LRP6-transduced HT1080 cells and the control cells. Assay was carried out at indicated concentrations for 3 hours at 4° C. in the absence (total) or presence (non-specific) of 500 nM Mesd. (C) Scatchard plots of data in B. All values are the average of triple determinations with the s.d. indicated by error bars.
(§1) Cells (2×10^5) were seeded into 12-well dishes 1 day prior to assay. Ligand-binding buffer (minimal Eagle's medium containing 0.6% BSA with a different concentration of radioligand, 0.6 ml/well) was added to cell monolayers, in the absence or the presence of 500 nM unlabeled RAP or 500 nM unlabeled Mesd, followed with incubation for 0-4 hours at 4° C. Thereafter, overlying buffer containing unbound ligand was removed, and cell monolayers were washed and lysed in low-SDS lysis buffer (62.5 mM Tris-HCl pH 6.8, 0.2% SDS, 10% v/glycerol) and counted.

The target of assay [4] is T1, LRP6. Description: ^125I-DKK1 binding to LRP6-transduced HT1080 cells. Further details: plasmid pCS-Myc-hLRP6 containing the full-length human LRP6 cDNA; HA; expressed in transfected cells; host or cells: human HT1080 cells, stably transduced (pLNCX2 retroviral vector). Conditions: 500 nM competitor, ^125I-DKK1 5 nM, 3 hours at 4° C. As to the method: as §1
RAP is a receptor antagonist for members of the LDLR family, and is able to inhibit the binding of most known ligands of the LDLR family members. […] In these experiments, Serum-free conditioned medium was harvested from HEK293 cells transiently transfected with cDNA for human Myc-DKK1 and allowed to bind to LRP6-transduced HT1080 cells (B,C) and control cells (A) in the absence (A,B) or presence (C) of 1 μM Mesd. Cell-surface-bound Myc-tagged DKK proteins were fixed and detected by immunofluorescence staining with anti-Myc antibody. […] Binding of 125I-DKK1 (5 nM) to LRP6-transduced HT1080 cells or the control cells was carried out for 3 hours at 4° C. in the absence (total) or presence of 500 nM RAP or 500 nM Mesd. […] LRP6-mediated 125I-Mesd (5 nM) degradation was carried out for 4 hours at 37° C. in the absence or presence of 500 nM RAP or 500 nM Mesd. Values are the means of triple determinations with the s.d. indicated by error bars. Bar, 10 μm.

Assay [5] deals with T1, LRP6. Description: ^125I-RAP binding to LRP6-transduced HT1080 cells and control cells. Further details: plasmid pCS-Myc-hLRP6 containing the full-length human LRP6 cDNA; HA; expressed in transfected cells; host or cells: human HT1080 cells, stably transduced (pLNCX2 retroviral vector). As to the method: as §1
Receptor-associated protein (RAP) binds with high affinity to LRP, megalin, VLDLR and apoER2, and with a lower affinity to the LDLR (Bu, G., Int. Rev. Cytol. 209, 79-116. 2001). To determine whether RAP and Mesd bind to identical, overlapping, or different sites on the receptors, binding and competition analysis of these two chaperones with HT1080 cells stably expressing LRP6 was performed.
In FIG. 8A, binding of ^125I-RAP (5 nM) to LRP6-transduced HT1080 cells and the control cells was carried out for 4 hours at 4° C. in the absence (total) or presence of 500 nM RAP, or 500 nM Mesd. In FIG. 8B, binding of ^125I-Mesd (5 nM) to LRP6-transduced HT1080 cells was carried out for 2 hours at 4° C. in the absence (total) or presence of various concentrations of RAP or 500 nM Mesd. (C) LRP6-mediated ^125I-Mesd (5 nM) degradation was carried out for 4 hours at 37° C. in the absence or presence of 500 nM Mesd or 500 nM RAP. Values are the means of triple determinations with the s.d. indicated by error bars.

Assay [6] addresses T2, LRP6 on LRP6-transduced HT1080 cells (HA-tagged) (UniProt O75581 20-1613, limits assumed).
T2 construct: whole, on cells; also called mature LRP6; cell surface LRP6
Put plainly: competition against 125I-DKK1 for LRP6 (FIG. 10D).

Assay [7] addresses T3, human Myc-tagged LRP5 on transiently transfected HEK293 cells (human, UniProt O75197 32-1615).
T3 construct: whole, on cells; also called mature LRP5; pcDNA3.1C-Myc-hLRP5
Description: competition against 125I-Mesd for LRP5 (FIG. 10A).

T1 sequence (O75581 20-1613): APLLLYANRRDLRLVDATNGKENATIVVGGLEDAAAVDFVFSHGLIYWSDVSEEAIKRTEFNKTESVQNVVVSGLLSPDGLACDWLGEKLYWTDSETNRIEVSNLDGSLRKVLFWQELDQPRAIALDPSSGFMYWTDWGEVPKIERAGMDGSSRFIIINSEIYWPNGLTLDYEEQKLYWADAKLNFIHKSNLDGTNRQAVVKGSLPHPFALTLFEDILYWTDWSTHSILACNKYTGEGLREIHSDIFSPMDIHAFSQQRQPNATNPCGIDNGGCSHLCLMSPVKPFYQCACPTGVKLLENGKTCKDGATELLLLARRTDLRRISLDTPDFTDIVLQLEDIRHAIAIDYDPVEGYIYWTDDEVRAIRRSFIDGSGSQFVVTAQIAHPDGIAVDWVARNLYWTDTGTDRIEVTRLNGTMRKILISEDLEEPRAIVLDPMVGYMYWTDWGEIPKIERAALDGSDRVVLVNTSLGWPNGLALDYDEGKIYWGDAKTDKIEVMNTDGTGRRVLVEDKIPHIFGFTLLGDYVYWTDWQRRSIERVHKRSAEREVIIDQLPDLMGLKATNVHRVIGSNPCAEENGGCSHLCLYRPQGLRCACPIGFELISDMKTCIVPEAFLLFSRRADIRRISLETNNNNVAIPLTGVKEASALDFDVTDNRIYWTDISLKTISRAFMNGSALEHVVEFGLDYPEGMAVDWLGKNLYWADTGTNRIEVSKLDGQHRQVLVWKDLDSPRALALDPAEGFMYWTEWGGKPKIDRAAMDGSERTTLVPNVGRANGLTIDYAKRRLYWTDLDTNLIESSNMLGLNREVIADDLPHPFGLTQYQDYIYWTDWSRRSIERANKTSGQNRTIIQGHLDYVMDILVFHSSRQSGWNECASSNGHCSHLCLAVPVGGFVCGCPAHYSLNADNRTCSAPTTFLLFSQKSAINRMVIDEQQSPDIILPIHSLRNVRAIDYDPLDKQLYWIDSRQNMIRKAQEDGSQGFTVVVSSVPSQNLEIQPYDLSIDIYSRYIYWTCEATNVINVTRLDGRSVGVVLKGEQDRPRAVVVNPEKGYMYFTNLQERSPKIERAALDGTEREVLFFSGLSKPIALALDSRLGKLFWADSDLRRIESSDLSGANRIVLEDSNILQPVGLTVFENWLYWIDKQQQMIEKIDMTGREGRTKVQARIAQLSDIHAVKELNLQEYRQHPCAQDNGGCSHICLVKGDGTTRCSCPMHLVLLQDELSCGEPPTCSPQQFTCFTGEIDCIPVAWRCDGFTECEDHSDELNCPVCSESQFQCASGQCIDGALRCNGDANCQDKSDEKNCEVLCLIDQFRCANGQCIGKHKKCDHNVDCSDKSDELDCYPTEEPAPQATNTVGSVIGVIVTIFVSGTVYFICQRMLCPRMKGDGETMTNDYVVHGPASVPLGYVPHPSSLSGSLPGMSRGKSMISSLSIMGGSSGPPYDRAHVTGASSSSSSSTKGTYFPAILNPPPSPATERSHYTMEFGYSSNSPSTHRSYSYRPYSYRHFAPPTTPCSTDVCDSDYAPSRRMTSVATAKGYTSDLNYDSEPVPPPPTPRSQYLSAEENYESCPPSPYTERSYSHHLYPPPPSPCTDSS
T3 sequence (O75197 32-1615): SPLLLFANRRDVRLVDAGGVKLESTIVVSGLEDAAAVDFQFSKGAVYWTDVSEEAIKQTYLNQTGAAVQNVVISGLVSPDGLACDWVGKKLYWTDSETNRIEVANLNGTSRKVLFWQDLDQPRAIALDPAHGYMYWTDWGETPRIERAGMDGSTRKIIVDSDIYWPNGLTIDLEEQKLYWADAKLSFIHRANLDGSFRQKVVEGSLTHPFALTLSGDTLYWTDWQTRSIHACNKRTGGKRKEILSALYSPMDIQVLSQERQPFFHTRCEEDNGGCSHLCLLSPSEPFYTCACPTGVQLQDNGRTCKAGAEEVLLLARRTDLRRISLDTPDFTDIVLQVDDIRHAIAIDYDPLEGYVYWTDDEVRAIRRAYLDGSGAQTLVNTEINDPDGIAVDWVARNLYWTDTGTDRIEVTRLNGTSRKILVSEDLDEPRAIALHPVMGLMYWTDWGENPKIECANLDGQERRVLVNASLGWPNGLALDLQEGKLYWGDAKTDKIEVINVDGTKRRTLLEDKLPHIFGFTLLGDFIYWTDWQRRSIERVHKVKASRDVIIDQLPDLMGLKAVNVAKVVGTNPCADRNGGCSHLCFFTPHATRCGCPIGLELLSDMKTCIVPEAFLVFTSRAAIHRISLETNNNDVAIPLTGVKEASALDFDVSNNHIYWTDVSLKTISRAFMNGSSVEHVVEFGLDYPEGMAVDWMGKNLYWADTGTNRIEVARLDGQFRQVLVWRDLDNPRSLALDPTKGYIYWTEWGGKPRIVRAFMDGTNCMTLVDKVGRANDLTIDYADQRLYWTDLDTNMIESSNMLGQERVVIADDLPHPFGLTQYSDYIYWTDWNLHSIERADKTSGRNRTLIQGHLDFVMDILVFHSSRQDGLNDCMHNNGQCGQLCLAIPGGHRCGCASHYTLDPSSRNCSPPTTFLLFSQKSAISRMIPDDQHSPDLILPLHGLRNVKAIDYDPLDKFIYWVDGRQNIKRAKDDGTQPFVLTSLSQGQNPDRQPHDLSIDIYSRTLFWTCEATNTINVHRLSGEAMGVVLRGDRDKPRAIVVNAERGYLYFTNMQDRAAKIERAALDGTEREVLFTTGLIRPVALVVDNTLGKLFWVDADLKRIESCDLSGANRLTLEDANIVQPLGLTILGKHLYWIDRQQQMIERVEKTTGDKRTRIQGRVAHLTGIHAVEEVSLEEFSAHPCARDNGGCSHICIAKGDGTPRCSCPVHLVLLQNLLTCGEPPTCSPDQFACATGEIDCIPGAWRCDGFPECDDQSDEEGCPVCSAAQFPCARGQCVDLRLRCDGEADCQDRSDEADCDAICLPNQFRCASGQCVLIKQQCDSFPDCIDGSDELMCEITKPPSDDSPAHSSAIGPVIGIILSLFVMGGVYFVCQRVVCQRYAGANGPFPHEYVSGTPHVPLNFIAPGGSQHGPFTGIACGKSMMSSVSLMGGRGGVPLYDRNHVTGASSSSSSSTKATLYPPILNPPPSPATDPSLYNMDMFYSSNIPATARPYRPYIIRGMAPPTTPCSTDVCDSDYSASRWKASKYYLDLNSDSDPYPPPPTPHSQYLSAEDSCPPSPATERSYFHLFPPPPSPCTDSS
T2 sequence (O75581 20-1613 limits assumed): as the sequence (O75581 20-1613) above

On to “KGGGSKEKNKTKPEKAKKKEGDRKPRASKEDNRAGSR [SEQ ID NO: 21]”, for which, in assay [1], the “Restoring of Wnt signaling inhibited by Dkk1 (luciferase activity)” value was “at least partially restoring Wnt signaling”.
With “RAP: human recombinant 39 kDa receptor-associated protein, expressed in a GST expression vector [reference compound]”, the “Inhibition of ^125I-Mesd degradation” value in assay [2] was “only partially”. In addition, in assay [3] (500 nM unlabeled competitor, ^125I-Mesd 5 nM, 2 hours at 4° C.), the “Inhibition of ^125I-Mesd binding to cell surface LRP6” value was about 60%. The “Effect of excess unlabeled competitor on increased DKK1 binding” value in assay [4] is recorded as “not”. The “Effect of excess unlabeled competitor on ^125I-RAP binding to control cells” value in assay [5] (500 nM competitor, control cells expressing vector alone, 4° C.) was “completely eliminated this binding”. For the same molecule, in assay [5] (^125I-RAP 5 nM, 4 hours at 4° C.), the “Increase of RAP binding in LRP6 expressing HT1080 cells compared to control cells” value is about 20%.
With “QMYPGKGGGSKEKNKTKPEKAKKKEGDPKPRASKEDNRAGSRREDL [SEQ ID NO: 22]”, in assay [3], the “Binding of Mesd truncation mutants to cell surface LRP6” value (“Binding of Mesd truncation mutants” below) is “necessary and sufficient for LRP6 binding”. Moreover, the “Restoring of Wnt signaling inhibited by Dkk1 (luciferase activity)” value in assay [1] is recorded as “at least partially restoring Wnt signaling”.

B1: MESD(12-195): truncated Mesd mutant lacking the N-terminal region (N-terminal 11 amino acids of mouse Mesd) (protein)
chain: RKKKDIRDYNDADMARLLEQWEKDDDIEEGDLPEHKRPSAPIDFSKLDPGKPESILKMTKKGKTLMMFVTVSGNPTEKETEEITSLWQGSLFNANYDVQRFIVGSDRAIFMLRDGSYAWEIKDFLVSQDRCAEVTLEGQMYPGKGGGSKEKNKTKPEKAKKKEGDRKPRASKEDNRAGSRREDL
modifications: left off: small tags and cut ends
With B1, the “Binding of Mesd truncation mutants” value in assay [3] is on record as “no effect on LRP6 binding”.

B2: Mesd oligopeptide KGGGSKEKNKTKPEKAKKKEGDPKPRASKEDNRAGSR (SEQ ID NO: 20) (peptide)
peptide: KGGGSKEKNKTKPEKAKKKEGDPKPRASKEDNRAGSR
notes: also called the oligopeptide
As for B2, in assay [6], the “fold reduction of ^125I-DKK1 binding” value is over 2 fold. For the same molecule, the “fold reduction of ^125I-Mesd binding” value in assay [7] was about 10 fold.

B3: Mesd(12-155): truncated Mesd mutant lacking both the N-terminal and C-terminal regions (protein)
chain: RKKKDIRDYNDADMARLLEQWEKDDDIEEGDLPEHKRPSAPIDFSKLDPGKPESILKMTKKGKTLMMFVTVSGNPTEKETEEITSLWQGSLFNANYDVQRFIVGSDRAIFMLRDGSYAWEIKDFLVSQDRCAEVTLEGQMYPGK
modifications: left off: small tags and cut ends
notes: truncated Mesd mutant lacking both the N-terminal and C-terminal regions
As to B3, in assay [3], the “Binding of Mesd truncation mutants” value was “completely abolished LRP6 binding”.
